Our source for the binding result and EC50 values is publication PMC12052392 (PLOS Pathogens, 2025).

Positions count from the first letter of the chain named.

Assay [1] addresses T1, GST-fused truncated S2 protein S2 (L1141-L1152) (SARS-CoV-2 prototype (MN908947.3), UniProt P0DTC2).
T1 construct: not shown: GST, N-terminal, kept
T1 chain: LQPELDSFKEEL
The experiment in a line: BLI; […]; 20 mM HEPES pH 7.4, 150 mM NaCl, 0.05% Tween-20. To be noted: both partners purified.

For assay [2], the target named is T2, GST-fused truncated S2 protein S2 (P1140-L1152) (SARS-CoV-2 prototype (MN908947.3), UniProt P0DTC2).
T2 construct: not shown: GST, N-terminal, kept
T2 chain: PLQPELDSFKEEL
Described as above. To be noted: both partners purified.

Assay [3] concerns the target T3, GST-fused truncated S2 protein S2 (D1139-E1150) (SARS-CoV-2, MN908947.3, UniProt P0DTC2).
T3 construct: not shown: GST, N-terminal, kept
T3 chain: DPLQPELDSFKE
The description is as above. To be noted: both partners purified.

The target of assay [4] is T4, GST-fused truncated S2 protein S2 (P1140-D1153) (SARS-CoV-2, MN908947.3, UniProt P0DTC2).
T4 construct: not shown: GST, N-terminal, kept
T4 chain: PLQPELDSFKEELD
The description is as above. To be noted: both partners purified.

Assay [5] deals with T5, GST-fused truncated S2 protein S2 (T1076-H1159) (SARS-CoV-2 prototype (MN908947.3), UniProt P0DTC2).
T5 construct: not shown: GST, N-terminal, kept
Kind of assay: far-Western, overlay or dot blot. To be noted: both partners purified.

Assay [6] has as its target T6, epitope SH-peptide (spanning residues D1139-D1153) (SARS-CoV-2 prototype, UniProt P0DTC2).
T6 chain: DPLQPELDSFKEELD
The experiment in a line: crystal structure. To be noted: both partners purified.

Assay [7] addresses PANG/GD spike (S) protein expressed on HEK-293T cells (Pangolin coronavirus Guangdong …, strain). Kind of assay: flow cytometry on cells. To be noted: one partner purified.
Assay [8] deals with WIV1 spike (S) protein expressed on HEK-293T cells (Bat SARS-like coronavirus WIV1 …, UniProt U5WI05, strain). The experiment in a line: flow cytometry on cells. To be noted: one partner purified.
The target of assay [9] is HKU3 spike (S) protein expressed on HEK-293T cells (Bat SARS-like coronavirus HKU3, GenBank …, UniProt A0A7G6UAJ9, strain). The experiment in a line: flow cytometry on cells. To be noted: one partner purified.
The target of assay [10] is SARS-CoV spike (S) protein expressed on HEK-293T cells (SARS-CoV, GenBank AY278554.2, UniProt P59594). The experiment in a line: flow cytometry on cells. To be noted: one partner purified. A general note: In flow cytometry, cells or beads pass a laser one at a time.
The target in assay [11] is SARS-CoV-2 spike (S) protein, full-length, expressed on the surface of HEK-293T cells (SARS-CoV-2 prototype (MN908947.3), UniProt P0DTC2). The experiment in a line: flow cytometry on cells. To be noted: one partner purified.
Assay [12] deals with T7, GST-fused truncated S2 protein S2 (D1139-L1152) (SARS-CoV-2, MN908947.3).
T7 construct: not shown: GST, N-terminal, kept
T7 chain: DPLQPELDSFKEEL
The experiment in a line: ELISA; […], room temperature; […]. To be noted: both partners purified.

The target of assay [13] is S2 (T1076-Q1208) protein as coated in ELISA (devoid of the His tag) (SARS-CoV-2, MN908947.3, UniProt P0DTC2). Kind of assay: ELISA; […], room temperature; […]. To be noted: both partners purified.
Assay [14] has as its target T1, GST-fused truncated S2 protein S2 …. Kind of assay: ELISA; […], room temperature; […]. To be noted: both partners purified. In general terms: An ELISA detects its analyte on a solid surface through an enzyme-linked reagent.
In assay [15] the target is T2, GST-fused truncated S2 protein S2 …. Kind of assay: ELISA; […], room temperature; […]. To be noted: both partners purified.
The target of assay [16] is T4, GST-fused truncated S2 protein S2 …. The experiment in a line: ELISA; […], room temperature; […]. To be noted: both partners purified.

B1: nanobody H145 (VHH)
VHH: QVQLVESGGGLVQTGGSLRLSCEASGSAFSSYAVNWYRQAPGKQREPVAAIGSFNTVYSDSVKGRFTISRDNAKNTVYLQMNSLKPEDTAVYICNARRGATNTWGQGTQVTVSS
notes: also called anti-SH nNb H145; not shown: His6, C-terminal, kept
Usually EC50 stands for the midpoint of the concentration-response curve. Take B1: the binding result is recorded as “no binding (tested: 200 nM)” in [1]; “no binding (tested: 200 nM)” in assay [2]; “binds” in [3]; “no binding (tested: 200 nM)” in [4]; “binds” in assay [5]; “binds” in [6]. For the same molecule, the binding result in assay [7], in assay [8], in assay [9], in assay [10], in assay [11] and in [13] was “binds” in each case. This molecule had an EC50 in assay [12] of 2 nM.

B2: nanobody H17 (VHH)
VHH: B1 VHH with Q1E, L4V, E23A, I93V, T103Y, S114P
notes: also called anti-SH nNb H17; not shown: His6, C-terminal, kept
With B2, the binding result in assay [5], in assay [7], in [8], in [9], in assay [10] and in assay [11] was “binds” throughout. Moreover, the binding result in assay [14] is recorded as “no binding (tested: 200 nM)”; in assay [15], “no binding (tested: 200 nM)”; in assay [13] it was “binds”; in assay [16], “no binding (tested: 200 nM)”. Moreover, the response in [12] was half-maximal at 11.3 nM (EC50).
